Here are results for three molecules from PMC5086636 (Toxins, 2016).

Values joined by “and” are separate entries in the source; they are usually repeats but may differ in a detail not shown here. Equal values may be shown once.

In general, Kd refers to the constant that tells how readily two partners part at equilibrium.

The target in assay [1] is Synaptotagmin-II 8-61 (UniProt P29101). Description: ITC. The conditions noted are these: cited from earlier work.
Assay [2] deals with T1, Syt-II_(40-60) peptide (amino acid residues 40-60 of the mouse synaptotagmin protein) (mouse).
T1 peptide: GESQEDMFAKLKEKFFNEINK
Description: BLI; Octet Red; […]; 25 °C; PBS + 0.02% Tween 20, 1% BSA, 0.05% azide; […]. The conditions noted are these: one partner purified. Background: BLI is a label-free optical method that tracks binding on a fibre tip over time.

Assay [3] has as its target Synaptotagmin-II 40-60, P29101.

Sequence of Synaptotagmin-II 40-60, P29101 (P29101 40-60): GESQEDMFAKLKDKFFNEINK
Sequence of Synaptotagmin-II 8-61 (P29101 8-61): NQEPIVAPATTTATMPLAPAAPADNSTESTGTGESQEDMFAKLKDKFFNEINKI

BoNT/B 858-1291 (from UniProt P10844): the Kd in assay [1] was 34 nM.

B1: Botulinum neurotoxin type B (natural protein)
chain: MPVTINNFNYNDPIDNNNIIMMEPPFARGTGRYYKAFKITDRIWIIPERYTFGYKPEDFNKSSGIFNRDVCEYYDPDYLNTNDKKNIFLQTMIKLFNRIKSKPLGEKLLEMIINGIPYLGDRRVPLEEFNTNIASVTVNKLISNPGEVERKKGIFANLIIFGPGPVLNENETIDIGIQNHFASREGFGGIMQMKFCPEYVSVFNNVQENKGASIFNRRGYFSDPALILMHELIHVLHGLYGIKVDDLPIVPNEKKFFMQSTDAIQAEELYTFGGQDPSIITPSTDKSIYDKVLQNFRGIVDRLNKVLVCISDPNININIYKNKFKDKYKFVEDSEGKYSIDVESFDKLYKSLMFGFTETNIAENYKIKTRASYFSDSLPPVKIKNLLDNEIYTIEEGFNISDKDMEKEYRGQNKAINKQAYEEISKEHLAVYKIQMCKSVKAPGICIDVDNEDLFFIADKNSFSDDLSKNERIEYNTQSNYIENDFPINELILDTDLISKIELPSENTESLTDFNVDVPVYEKQPAIKKIFTDENTIFQYLYSQTFPLDIRDISLTSSFDDALLFSNKVYSFFSMDYIKTANKVVEAGLFAGWVKQIVNDFVIEANKSNTMDKIADISLIVPYIGLALNVGNETAKGNFENAFEIAGASILLEFIPELLIPVVGAFLLESYIDNKNKIIKTIDNALTKRNEKWSDMYGLIVAQWLSTVNTQFYTIKEGMYKALNYQAQALEEIIKYRYNIYSEKEKSNINIDFNDINSKLNEGINQAIDNINNFINGCSVSYLMKKMIPLAVEKLLDFDNTLKKNLLNYIDENKLYLIGSAEYEKSKVNKYLKTIMPFDLSIYTNDTILIEMFNKYNSEILNNIILNLRYKDNNLIDLSGYGAKVEVYDGVELNDKNQFKLTSSANSKIRVTQNQNIIFNSVFLDFSVSFWIRIPKYKNDGIQNYIHNEYTIINCMKNNSGWKISIRGNRIIWTLIDINGKTKSVFFEYNIREDISEYINRWFFVTITNNLNNAKIYINGKLESNTDIKDIREVIANGEIIFKLDGDIDRTQFIWMKYFSIFNTELSQSNIEERYKIQSYSEYLKDFWGNPLMYNKEYYMFNAGNKNSYIKLKKDSPVGEILTRSKYNQNSKYINYRDLYIGEKFIIRRKSNSQSINDDIVRKEDYIYLDFFNLNQEWRVYTYKYFKKEEEKLFLAPISDSDEFYNTIQIKEYDEQPTYSCQLLFKKDEESTDEIGLIGIHRFYESGIVFEEYKDYFCISKWYLKEVKRKPYNLKLGCNWQFIPKDEGWTE
For B1, in assay [2], the “KD of the first, rapid step (2:1 heterogeneous ligand model)” value was determined as 90 nM and the “KD of the second, slow step (2:1 heterogeneous ligand model)” value stood at 20 nM.

B2: BoNT/B, P10844 (protein)
chain: PVTINNFNYNDPIDNNNIIMMEPPFARGTGRYYKAFKITDRIWIIPERYTFGYKPEDFNKSSGIFNRDVCEYYDPDYLNTNDKKNIFLQTMIKLFNRIKSKPLGEKLLEMIINGIPYLGDRRVPLEEFNTNIASVTVNKLISNPGEVERKKGIFANLIIFGPGPVLNENETIDIGIQNHFASREGFGGIMQMKFCPEYVSVFNNVQENKGASIFNRRGYFSDPALILMHELIHVLHGLYGIKVDDLPIVPNEKKFFMQSTDAIQAEELYTFGGQDPSIITPSTDKSIYDKVLQNFRGIVDRLNKVLVCISDPNININIYKNKFKDKYKFVEDSEGKYSIDVESFDKLYKSLMFGFTETNIAENYKIKTRASYFSDSLPPVKIKNLLDNEIYTIEEGFNISDKDMEKEYRGQNKAINKQAYEEISKEHLAVYKIQMCKSVKAPGICIDVDNEDLFFIADKNSFSDDLSKNERIEYNTQSNYIENDFPINELILDTDLISKIELPSENTESLTDFNVDVPVYEKQPAIKKIFTDENTIFQYLYSQTFPLDIRDISLTSSFDDALLFSNKVYSFFSMDYIKTANKVVEAGLFAGWVKQIVNDFVIEANKSNTMDKIADISLIVPYIGLALNVGNETAKGNFENAFEIAGASILLEFIPELLIPVVGAFLLESYIDNKNKIIKTIDNALTKRNEKWSDMYGLIVAQWLSTVNTQFYTIKEGMYKALNYQAQALEEIIKYRYNIYSEKEKSNINIDFNDINSKLNEGINQAIDNINNFINGCSVSYLMKKMIPLAVEKLLDFDNTLKKNLLNYIDENKLYLIGSAEYEKSKVNKYLKTIMPFDLSIYTNDTILIEMFNKYNSEILNNIILNLRYKDNNLIDLSGYGAKVEVYDGVELNDKNQFKLTSSANSKIRVTQNQNIIFNSVFLDFSVSFWIRIPKYKNDGIQNYIHNEYTIINCMKNNSGWKISIRGNRIIWTLIDINGKTKSVFFEYNIREDISEYINRWFFVTITNNLNNAKIYINGKLESNTDIKDIREVIANGEIIFKLDGDIDRTQFIWMKYFSIFNTELSQSNIEERYKIQSYSEYLKDFWGNPLMYNKEYYMFNAGNKNSYIKLKKDSPVGEILTRSKYNQNSKYINYRDLYIGEKFIIRRKSNSQSINDDIVRKEDYIYLDFFNLNQEWRVYTYKYFKKEEEKLFLAPISDSDEFYNTIQIKEYDEQPTYSCQLLFKKDEESTDEIGLIGIHRFYESGIVFEEYKDYFCISKWYLKEVKRKPYNLKLGCNWQFIPKDEGWTE
On to B2, for which the Kd in assay [3] is 20 nM and 90 nM.
